Earlier results as cited in paper PMC6780499, “Characterization, Recombinant Production and Structure-Function Analysis of NvCI, A Picomolar Metallocarboxypeptidase Inhibitor from the Marine Snail Nerita versicolor” (Marine Drugs, 2019).

Assays:
hCPA1 = biological target: T1, hCPA1 (Homo sapiens, UniProt P15085); details: ref Arolas et al., 2005 [12]; cited from earlier work
T1 sequence (P15085 111-419): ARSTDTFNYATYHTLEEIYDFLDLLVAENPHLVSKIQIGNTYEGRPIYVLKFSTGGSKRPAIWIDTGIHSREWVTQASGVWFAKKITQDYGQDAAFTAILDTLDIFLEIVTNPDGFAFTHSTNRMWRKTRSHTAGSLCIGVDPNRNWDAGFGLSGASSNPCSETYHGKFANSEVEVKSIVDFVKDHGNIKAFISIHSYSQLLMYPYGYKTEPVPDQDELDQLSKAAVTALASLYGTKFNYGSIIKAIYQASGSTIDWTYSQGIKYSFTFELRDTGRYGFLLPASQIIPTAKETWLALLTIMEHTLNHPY
Text: (§1) Table 2 Ki values of various proteinaceous metallocarboxypeptidases (MCPs) inhibitors. | column: Ki (nM) / rPCI (a); Ki (nM) / rTCI (b); Ki (nM) / rLCI (c); Ki (nM) / rACI (d); Ki (nM) / rhuman latexin (e)

hCPA2 = biological target: T2, hCPA2 (Homo sapiens, UniProt P48052); details: ref Arolas et al., 2005 [12]; cited from earlier work
T2 sequence (P48052 115-419): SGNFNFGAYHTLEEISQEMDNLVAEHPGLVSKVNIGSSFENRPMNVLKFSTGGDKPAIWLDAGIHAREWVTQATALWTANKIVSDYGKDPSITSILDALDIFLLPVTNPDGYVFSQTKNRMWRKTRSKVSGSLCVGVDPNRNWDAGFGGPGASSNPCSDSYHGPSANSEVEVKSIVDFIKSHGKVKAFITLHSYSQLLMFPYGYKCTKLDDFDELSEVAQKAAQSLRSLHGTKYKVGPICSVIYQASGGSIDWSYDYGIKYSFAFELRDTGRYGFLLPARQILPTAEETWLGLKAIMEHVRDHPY
Text: as §1

hCPA4 = biological target: T3, hCPA4 (Homo sapiens, UniProt Q9UI42); details: ref Tanco et al., 2010 [22]; cited from earlier work
T3 sequence (Q9UI42 114-421): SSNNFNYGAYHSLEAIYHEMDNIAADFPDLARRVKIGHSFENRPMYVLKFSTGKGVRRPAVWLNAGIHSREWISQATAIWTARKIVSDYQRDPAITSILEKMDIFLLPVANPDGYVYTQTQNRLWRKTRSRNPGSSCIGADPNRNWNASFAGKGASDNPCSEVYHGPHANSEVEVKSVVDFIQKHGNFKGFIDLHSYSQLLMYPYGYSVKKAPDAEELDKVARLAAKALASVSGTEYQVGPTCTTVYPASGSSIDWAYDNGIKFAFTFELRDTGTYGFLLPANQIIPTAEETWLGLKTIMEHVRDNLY
Text: as §1

bCPA1 = biological target: T4, bCPA1 (Bos taurus, UniProt P00730); details: ref Arolas et al., 2005 [12]; cited from earlier work
T4 sequence (P00730 111-419): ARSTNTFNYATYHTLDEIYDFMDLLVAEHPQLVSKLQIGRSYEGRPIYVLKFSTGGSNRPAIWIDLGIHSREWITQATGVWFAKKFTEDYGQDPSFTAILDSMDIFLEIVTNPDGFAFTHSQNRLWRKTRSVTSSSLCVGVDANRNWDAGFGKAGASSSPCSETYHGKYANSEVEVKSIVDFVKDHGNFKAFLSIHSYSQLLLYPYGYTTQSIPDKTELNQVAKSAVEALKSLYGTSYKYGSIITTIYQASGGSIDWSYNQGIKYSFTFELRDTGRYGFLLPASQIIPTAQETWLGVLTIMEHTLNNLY
Text: as §1

bTAFI = biological target: T5, bTAFI (Bos taurus, UniProt Q2KIG3); details: ref Arolas et al., 2005 [12]; cited from earlier work
T5 sequence (Q2KIG3 115-423): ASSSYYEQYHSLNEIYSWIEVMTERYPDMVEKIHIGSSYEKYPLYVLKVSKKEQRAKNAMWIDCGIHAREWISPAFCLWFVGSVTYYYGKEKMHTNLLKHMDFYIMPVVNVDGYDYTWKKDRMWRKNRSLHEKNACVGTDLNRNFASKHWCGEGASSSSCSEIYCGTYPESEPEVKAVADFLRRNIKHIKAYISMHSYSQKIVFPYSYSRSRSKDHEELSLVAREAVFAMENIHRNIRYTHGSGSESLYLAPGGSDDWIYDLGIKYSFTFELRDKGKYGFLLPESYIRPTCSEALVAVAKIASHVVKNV
Text: Table 2 Ki values of various proteinaceous metallocarboxypeptidases (MCPs) inhibitors. | column: Ki (nM) / rPCI (a); Ki (nM) / rTCI (b)

pCPB = biological target: T6, pCPB (Sus scrofa, UniProt P09955); details: ref Arolas et al., 2005 [12]; cited from earlier work
T6 sequence (P09955 111-416): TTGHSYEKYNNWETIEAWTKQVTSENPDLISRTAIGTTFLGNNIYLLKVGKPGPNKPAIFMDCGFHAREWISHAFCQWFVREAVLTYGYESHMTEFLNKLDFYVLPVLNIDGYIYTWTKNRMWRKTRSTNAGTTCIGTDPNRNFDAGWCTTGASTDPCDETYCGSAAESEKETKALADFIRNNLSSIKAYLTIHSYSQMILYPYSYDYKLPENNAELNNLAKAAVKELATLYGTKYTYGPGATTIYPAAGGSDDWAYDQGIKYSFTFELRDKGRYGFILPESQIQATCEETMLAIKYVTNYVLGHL
Text: Table 2 Ki values of various proteinaceous metallocarboxypeptidases (MCPs) inhibitors. | column: Ki (nM) / rPCI (a); Ki (nM) / rTCI (b); Ki (nM) / rLCI (c)

hTAFI = biological target: T7, hTAFI (Homo sapiens, UniProt Q96IY4); details: ref Arolas et al., 2005 [12]; cited from earlier work
T7 sequence (Q96IY4 115-423): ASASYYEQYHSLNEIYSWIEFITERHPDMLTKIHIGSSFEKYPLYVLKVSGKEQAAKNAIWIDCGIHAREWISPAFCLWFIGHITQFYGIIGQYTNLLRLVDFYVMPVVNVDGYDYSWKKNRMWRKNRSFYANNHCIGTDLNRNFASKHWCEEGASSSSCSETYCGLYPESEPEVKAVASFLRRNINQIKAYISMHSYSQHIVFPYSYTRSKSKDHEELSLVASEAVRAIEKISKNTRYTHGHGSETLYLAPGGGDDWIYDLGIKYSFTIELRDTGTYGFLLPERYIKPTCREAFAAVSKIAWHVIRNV
Text: Table 2 Ki values of various proteinaceous metallocarboxypeptidases (MCPs) inhibitors. | column: Ki (nM) / rPCI (a); Ki (nM) / rTCI (b); Ki (nM) / rACI (d); Ki (nM) / rhuman latexin (e)

hCPB = biological target: T8, hCPB (Homo sapiens, UniProt P15086); details: ref Arolas et al., 2005 [12]; cited from earlier work
T8 sequence (P15086 111-417): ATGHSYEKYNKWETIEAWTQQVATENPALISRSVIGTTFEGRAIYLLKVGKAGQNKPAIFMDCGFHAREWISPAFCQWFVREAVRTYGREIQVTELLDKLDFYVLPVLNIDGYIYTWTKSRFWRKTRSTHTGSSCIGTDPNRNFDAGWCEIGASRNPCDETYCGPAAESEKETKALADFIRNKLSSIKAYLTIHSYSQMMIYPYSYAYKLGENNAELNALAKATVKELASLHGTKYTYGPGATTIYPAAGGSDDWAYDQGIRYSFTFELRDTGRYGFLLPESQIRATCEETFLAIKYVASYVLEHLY
Text: Table 2 Ki values of various proteinaceous metallocarboxypeptidases (MCPs) inhibitors. | column: Ki (nM) / rPCI (a); Ki (nM) / rTCI (b); Ki (nM) / rLCI (c); Ki (nM) / rhuman latexin (e)

## rPCI: recombinant proteinaceous carboxypeptidase inhibitor from potato (QQHADPICNKPCKTHDDCSGAWFCQACWNSARTCGPYVG; UniProt P01075 1-39, looked up) [reference compound]
hCPA1
  Ki: 1.6 ± 0.3 nM
hCPA2
  Ki: 8.8 ± 0.7 nM
hCPA4
  Ki: 1.3 ± 0.1 nM
bCPA1
  Ki: 1.6 ± 0.2 nM
bTAFI
  Ki: 2.5 ± 0.4 nM
pCPB
  Ki: 7.2 ± 0.6 nM
hTAFI
  Ki: 5.2 ± 0.5 nM
hCPB
  Ki: 1.8 ± 0.3 nM
